This passage reports Ka and [mAb] results from US20120294874A1.

Assay [1] has as its target HLA-A201/LMP-1 monomer (recombinant, membrane free, refolded complex of HLA-A201 heavy chain, beta-2 microglobulin and LMP-1 peptide …) (human; Epstein-Barr virus). The experiment in a line: average Kaff (Beatty et al. method).
Assay [2] shares this target. The assay can be described thus: dose response curve, antigen at 15 ng/ml (method of Beatty et al.).
The target is the same in assay [3]. The assay can be described thus: dose response curve, antigen at 30 ng/ml (method of Beatty et al.).
For assay [4] the target is unchanged. The assay can be described thus: dose response curve, antigen at 60 ng/ml (method of Beatty et al.).
The target is the same in assay [5]. The experiment in a line: dose response curve, antigen at 120 ng/ml (method of Beatty et al.).
The target is the same in assay [6]. The assay can be described thus: Kaff from OD50 at two antigen concentrations (Beatty et al.), [Ag] 15 ng/ml.
Assay [7] shares this target. The assay can be described thus: Kaff from OD50 at two antigen concentrations (Beatty et al.), [Ag] 30 ng/ml.
For assay [8] the target is unchanged. The assay can be described thus: Kaff from OD50 at two antigen concentrations (Beatty et al.), [Ag] 60 ng/ml.
Assay [9] has the same target. The assay can be described thus: Kaff from OD50 at two antigen concentrations (Beatty et al.), [Ag] 120 ng/ml.

Take “BB7.2 (pan anti-HLA-A2), commercially available anti-HLA-A2 antibody”: the Ka in [1] worked out at 7.17e+08 M⁻¹; in [6], 4.31e+08 M⁻¹; in assay [7], 8.71e+08 M⁻¹; in assay [8], 1.01e+09 M⁻¹; in assay [9], 5.7e+08 M⁻¹. Also, the [mAb] at OD50 in [2] worked out at 121 ng/mL; in assay [3], 68.1 ng/mL; in assay [4], 54.1 ng/mL; in assay [5], 26.1 ng/mL.
